Assay results: the supplement of paper PMC9942255
Several values for one entry are separate records, joined by “and”; a condition that tells them apart may be missing. Equal values may be shown once.

Test system: Bacillus subtilis DB104 (SP-AmyQ fusion secretion)
Assay: AmyQ secretion efficiency, weighted average sort bin (1 = best secretion, 10 = worst) (bin number (weighted average, 1-10)); higher = lower secretion efficiency
Outline: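 Secretion score gives the read-frequency-weighted average bin number, normalised to beads per bin, with low-abundance sequences left out. A B. subtilis DB104 library expressing mature AmyQ fused to designed signal peptides, integrated at amyE, was encapsulated with fluorescein-starch at about 0.3 cells per ~65 nL alginate bead. Beads were grown about 13 h at room temperature, stained with nile red, and the occupied ones were sorted by large-particle flow cytometry into 10 equally populated bins by green/red fluorescence ratio before the amplicons from each bin were Illumina-sequenced.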

## MKKWRYTKRQRKLILAGIALFVFISPLKSHKT
  AmyQ secretion efficiency: 6.51

## MKRLLVSLRVWMVFLMNWVTPDRKTAAAAVY
  AmyQ secretion efficiency: 6.49

## MRKKCSVCKRILVLLLSCLSGKSAYAATS
  AmyQ secretion efficiency: 7.44

## MGCGTQGKGSGIASFPVSAQAKDQ
  AmyQ secretion efficiency: 6.09

## MKSKGSIMIFIFACLILFSFTITTFINTETISAFSN
  AmyQ secretion efficiency: 7.77

## MRKFLKSNFRFLLAAALGISLLASSNFIKASND
  AmyQ secretion efficiency: 4.13

## MMIKQCVICLSLLVFGTTAAHAARR
  AmyQ secretion efficiency: 5.39

## MKVPKTMLLSTAAGLLLSLTATSVSCHYV
  AmyQ secretion efficiency: 5.45

## MARRRRRKAAVIVIAALITFNVRNASPG
  AmyQ secretion efficiency: 6.9

## MSTIWIGMLAAAVLLLMVPKVSLADAA
  AmyQ secretion efficiency: 6.21

## MMKKLFHSTLIVLLFFSFFGVQPIHAKKR
  AmyQ secretion efficiency: 2.74

## MRGKSAVLLSLIMLIAGFLISFSFQK
  AmyQ secretion efficiency: 9.36

## MRSKKLWISLLFALTLIRKRKKRNMSAQAAGK
  AmyQ secretion efficiency: 9.84

## MKKSQYFRKRRCKRVLFSVHPIAAAAADS
  AmyQ secretion efficiency: 7.95

## MIAYFKCLLLVTIMFLGVLFGMQQANHG
  AmyQ secretion efficiency: 6.01

## MFMQIITATTAVVLGSTLFAGAASAQSI
  AmyQ secretion efficiency: 3.83

## MKRSISIFITCLLITLLTMGGMIASPASAAGT
  AmyQ secretion efficiency: 3.79 and 2.48 and 2.42

## MKRMIVRMTLMMTLPLLIVCLAFSSFSASARAASE
  AmyQ secretion efficiency: 2.08

## MMKKGLLAGALTATVLFRKCAVRVPGIISPKTAEAASQ
  AmyQ secretion efficiency: 6.57

## MLKRTSFVSSLFISSAVLLSILRRKRRRAHAQSA
  AmyQ secretion efficiency: 7.6

## MMRTWNVCLTALLSVLLVAGSVPFHAEAKKP
  AmyQ secretion efficiency: 3.23

## MTMLRKIRRKRKRLCIIPLFAFTVIASGKEV
  AmyQ secretion efficiency: 6.99

## MKKRLIAPMLLIAAILAFFAMSGSAQAAAY
  AmyQ secretion efficiency: 2.47

## MRNLTKTSLLLAGLCTAAQMVFVTHASCEES
  AmyQ secretion efficiency: 4.5

## MKKRLIAPMLLSAASLAFFAMSGSQQAAAY
  AmyQ secretion efficiency: 4.52

## MKKWIYVVLVLSIAGIGGKRRVHAASS
  AmyQ secretion efficiency: 7.83

## MKKRFSLIMMTGLLFGLTSPAFAAPE
  AmyQ secretion efficiency: 3.06

## MKKKQVMLKRKKKKGLGLTALHSAPAAKAAPL
  AmyQ secretion efficiency: 8.05

## MKLKSKLLLSCLALSTVFVATTIANHPTH
  AmyQ secretion efficiency: 4.89

## MKKRLIAPMLLSAASLAFFAMSGSAQAAAE
  AmyQ secretion efficiency: 2.56

## MRKKRVITCVMAASPAGYATAKED
  AmyQ secretion efficiency: 7.65

## MRRKRKRTSLLLAGLCTAAQMVFVTHASAEES
  AmyQ secretion efficiency: 2.89

## MKVPKTMLLSTAAGLLLSLTATSASAHYV
  AmyQ secretion efficiency: 5.6

## MLTINLLTIYIMLLGLIAWFPGAAQAEEK
  AmyQ secretion efficiency: 4.46

## MNKLKRLSMLTVMIASVFIFSSHILAAQY
  AmyQ secretion efficiency: 3.91

## MKRLFMKASLVLFAVVFVFKPAKAETH
  AmyQ secretion efficiency: 3.15

## MKNMSCKLVVSVTLFFSFLTIGPLAHAQND
  AmyQ secretion efficiency: 1.22

## MKRLLSTLLIGIMLLVTFAPSAFAKQD
  AmyQ secretion efficiency: 2.15

## MKKRLIGFLVLVPALIMSGITLIEARKK
  AmyQ secretion efficiency: 7.62

## MLKKKWMVGLLAGCLAAGGAFATEN
  AmyQ secretion efficiency: 6.32

## MKLSVKIRKVLTVAAAAMTAKMYATAKGN
  AmyQ secretion efficiency: 6.94

## MKKLLAAGIIGLLTVSIASPSFGAEK
  AmyQ secretion efficiency: 4.39

## MKKRKRRNFKRFIAAFLVLALMISLVPADVLKKST
  AmyQ secretion efficiency: 6.16

## MRKKRVITCVMAASLTLGSLLPAGYCSAKED
  AmyQ secretion efficiency: 3.36

## MKKQIITATTAVVLGSTLFAAASSTGAASAQSI
  AmyQ secretion efficiency: 3.24

## MTTTIAWFLPLVCVLLISGWLAPAASASAQTT
  AmyQ secretion efficiency: 2.38

## MKKLLAAGIIGLLTVSIASPGFAAEK
  AmyQ secretion efficiency: 2.84

## MKKKIVAGLAVSAVVGSSMAAEAKTI
  AmyQ secretion efficiency: 5.65

## MRFTKVVGFLSVLGLAAVFPLTCQAEKA
  AmyQ secretion efficiency: 2.19

## MMIGQCVICLSLLVFGTTAAHAEET
  AmyQ secretion efficiency: 4.07

## MRFTKVVGFLSVLGLAAKKKLTAQAEKA
  AmyQ secretion efficiency: 7.51

## MLKKKWMVGLLAGCLAAGSAGFSYNAFATEN
  AmyQ secretion efficiency: 4.95

## MIAYFGKCLLLVTIMFLGVLFGMQQGNHG
  AmyQ secretion efficiency: 5.32

## MKRSIFITCLLITLLTMGGMIASPASAAGT
  AmyQ secretion efficiency: 2.08

## MRMLWRSLALCGLALTLAPCAQVAEP
  AmyQ secretion efficiency: 6.05

## MKKGIIRTGRQSFVLFFALSTGITGVQAAPA
  AmyQ secretion efficiency: 5.13

## MKKRLIAPMLLSAASLAFFAMSGSAQYAAY
  AmyQ secretion efficiency: 6.56

## MKSKGSIMACLILFSFTITTFINTETPSAFSN
  AmyQ secretion efficiency: 5.71

## MNLRKIMSIMNIILLSSALSLGMLVSAAPVLATSS
  AmyQ secretion efficiency: 2.04

## MLKKIALTLCPAIVGSLLFFTAPESAHVS
  AmyQ secretion efficiency: 5.94

## MKKRRIVSILFMFGLVMGFSQFQPSTVFAADK
  AmyQ secretion efficiency: 2.46

## MKVPKTMLLSTAAGLLLSLTATSDSAHYV
  AmyQ secretion efficiency: 6.94

## MKMKSGMEQAVSVLLLLSRLPVQASLTSD
  AmyQ secretion efficiency: 6.62

## MRKKLKWLSFKRRRKRLLFLFKYQFSNNDS
  AmyQ secretion efficiency: 8.72

## MKKIWIGMLAAAVLLLITISVTAAMVPKVSLADAA
  AmyQ secretion efficiency: 5

## MPYLKRVLLLLVTGLFMSLFAVTATLSAQTG
  AmyQ secretion efficiency: 1.38

## MPYLKRVLLLLVTGLFMSLFAVTATASHQTG
  AmyQ secretion efficiency: 1.34

## MKNMSCKLVVSVTLFFSFLTIGPLAHAQKR
  AmyQ secretion efficiency: 1.94

## MKVCQKSIVRSGVSLIIGTFVISVPFMANAQSD
  AmyQ secretion efficiency: 2.46

## MKKLLAAGIIGLLTVSIASPGFVFSFAAEK
  AmyQ secretion efficiency: 8.62

## MRMLWRMLALCLLALLLAPCAQAAEP
  AmyQ secretion efficiency: 1.73

## MNLRKILLSSALSLGMLVSAAPVLATSE
  AmyQ secretion efficiency: 1.92

## MKSKWMSGLLLVAVGFSFAIVMVHAGET
  AmyQ secretion efficiency: 5.38

## MNLRKTYSGRGYSLGMLVSAAPVLATSS
  AmyQ secretion efficiency: 6.74

## MRPVFPLILSAVLFLSCFFGARQTEMSASKR
  AmyQ secretion efficiency: 3.55

## MKKKLAAGLTASAIVGTTLVVTPLEAATI
  AmyQ secretion efficiency: 3.17

## MKRIRIPMTLALGAALTIAPLVLTVFAALSSFASAEEN
  AmyQ secretion efficiency: 6.39

## MKKKQVMLALTAAAGLGLTALHSAPAAKLAPL
  AmyQ secretion efficiency: 4.96

## MTGTTVSTAIIIISVMLSFVIAVFHTIHASELTP
  AmyQ secretion efficiency: 4.15

## MRKKRVITCVMAASPAGYASAKED
  AmyQ secretion efficiency: 7.41

## MLMLLSTLLIGIMLLTFAPSAFAKQD
  AmyQ secretion efficiency: 4.38

## MKKTSSFNFSSTAFLVFLSVVLVTTVFLVKQQESVAQAKQL
  AmyQ secretion efficiency: 2.65

## MRKKRVITCVMAASLTLGSLLPAGYASGKED
  AmyQ secretion efficiency: 3.86

## MSKWMAGLFLAAAVLLCLMVPQQIQGASS
  AmyQ secretion efficiency: 4.5

## MKRLFMKYKRYQKQVVFVFAVKGAPAKAETH
  AmyQ secretion efficiency: 7.88

## MKNMSCKLVVSVTLFFSFLTIGPLAHVQNS
  AmyQ secretion efficiency: 4.29

## MSTLVLCVSILAVILSGVALTQLS
  AmyQ secretion efficiency: 6.38

## MITAAAVLLSLGLVFGFSYGAGHVAEAKTK
  AmyQ secretion efficiency: 3.09

## MKKLLAAGIIGLLTVSSFAAEK
  AmyQ secretion efficiency: 6.74

## MKNMSCKLVVSVTLFFSFLTIGPLGHAQNS
  AmyQ secretion efficiency: 2.46

## MLKKIALTLCPAIVGSLLFFTAPASSHVS
  AmyQ secretion efficiency: 4.06
